Consider 14 molecules from publication PMC3176292, “Mutations in Protein-Binding Hot-Spots on the Hub Protein Smad3 Differentially Affect Its Protein Interactions and Smad3-Regulated Gene Expression” (PLoS ONE, 2011).

Positions count from the first letter of the chain named. Names may count otherwise.

B1: Renilla luciferase-Smad3 C338A (natural protein, UniProt P84022 1-425, looked up)
chain: MSSILPFTPPIVKRLLGWKKGEQNGQEEKWCEKAVKSLVKKLKKTGQLDELEKAITTQNVNTKCITIPRSLDGRLQVSHRKGLPHVIYCRLWRWPDLHSHHELRAMELCEFAFNMKKDEVCVNPYHYQRVETPVLPPVLVPRHTEIPAEFPPLDDYSHSIPENTNFPAGIEPQSNIPETPPPGYLSEDGETSDHQMNHSMDAGSPNLSPNPMSPAHNNLDLQPVTYCEPAFWCSISYYELNQRVGETFHASQPSMTVDGFTDPSNSERFCLGLLSNVNRNAAVELTRRHIGRGVRLYYIGGEVFAECLSDSAIFVQSPNCNQRYGWHPATVCKIPPGANLKIFNNQEFAALLAQSVNQGFEAVYQLTRMCTIRMSFVKGWGAEYRRQTVTSTPCWIELHLNGPLQWLDKVLTQMGSPSIRCSSVS
notes: Smad3; source: HEK-293, transfected together with constitutively active Alk5, in lysate
B2: Renilla luciferase-Smad3 W326A (natural protein, UniProt P84022 1-425, looked up)
chain: B1 chain with W326A, A338C
notes: as for B1
B3: Renilla luciferase-Smad3 P335A/P336A (natural protein, UniProt P84022 1-425, looked up)
chain: B1 chain with P335A, P336A, A338C
notes: as for B1
B4: Renilla luciferase-Smad3 Y297A (natural protein, UniProt P84022 1-425, looked up)
chain: B1 chain with Y297A, A338C
notes: as for B1
B5: Renilla luciferase-Smad3 Y226A (natural protein, UniProt P84022 1-425, looked up)
chain: B1 chain with Y226A, A338C
notes: as for B1
B6: Renilla luciferase-Smad3 V356R (natural protein, UniProt P84022 1-425, looked up)
chain: B1 chain with A338C, V356R
notes: as for B1
B7: Renilla luciferase-Smad3 V224A (natural protein, UniProt P84022 1-425, looked up)
chain: B1 chain with V224A, A338C
notes: as for B1
B8: Renilla luciferase-Smad3 E267A (natural protein, UniProt P84022 1-425, looked up)
chain: B1 chain with E267A, A338C
notes: as for B1
B9: Renilla luciferase-Smad3 W406A (natural protein, UniProt P84022 1-425, looked up)
chain: B1 chain with A338C, W406A
notes: as for B1
B10: Renilla luciferase-Smad3 Q322A/Y324A (natural protein, UniProt P84022 1-425, looked up)
chain: B1 chain with Q322A, Y324A, A338C
notes: as for B1
B11: Renilla luciferase-Smad3 S254A (natural protein, UniProt P84022 1-425, looked up)
chain: B1 chain with S254A, A338C
notes: as for B1
B12: Renilla luciferase-Smad3 Y298A (natural protein, UniProt P84022 1-425, looked up)
chain: B1 chain with Y298A, A338C
notes: as for B1
B13: Renilla luciferase-Smad3 K341A (natural protein, UniProt P84022 1-425, looked up)
chain: B1 chain with A338C, K341A
notes: as for B1
B14: Renilla luciferase-Smad3 L340A (natural protein, UniProt P84022 1-425, looked up)
chain: B1 chain with A338C, L340A
notes: as for B1

The target in the first experiment is T1, SIP1 Smad-binding domain (amino acids 315–487) on the 3xFlag-thioredoxin scaffold (UniProt Q9R0G7 315-487).
T1 construct: SIP1, amino acids 315–487; amplified from pACT2-SIP1-315-487 (from D. Huylebroeck), which I recall as a mouse clone; cloned into the RsrII site of pCI-3xFLAG-Trx; also called Sip1 315–487; TrxSIP1; source: HEK-293, transfected, in lysate
T1 sequence (looked up): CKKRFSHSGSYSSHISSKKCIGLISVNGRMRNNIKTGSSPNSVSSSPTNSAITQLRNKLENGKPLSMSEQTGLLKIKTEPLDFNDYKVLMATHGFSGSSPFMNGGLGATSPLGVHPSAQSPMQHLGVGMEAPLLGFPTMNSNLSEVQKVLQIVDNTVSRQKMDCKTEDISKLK
Nature of the experiment: co-IP; LUMIER: Renilla luciferase-Smad3 and Flag-tagged partner co-expressed with constitutively active Alk5 in HEK-293; Flag protein captured from cleared lysate (TNE: 10 mM Tris-HCl pH 7.8, 150 mM NaCl, 1 mM EDTA, 1% Igepal CA-630) on anti-Flag 96-well plates, 2 h at 4 °C; co-precipitated Renilla luciferase activity, TrxGA background subtracted, percent of wild-type Smad3. Particulars: partners not purified.
With B1, the “percent binding relative to wild-type Smad3” value came to 44%.

For the molecule B2, the “percent binding relative to wild-type Smad3” value worked out at 319%.

On to B3, for which the “percent binding relative to wild-type Smad3” value stood at 123%.

For the molecule B4, the “percent binding relative to wild-type Smad3” value is 80%.

As for B5, the “percent binding relative to wild-type Smad3” value was determined as 7%.

Turning to B6, the “percent binding relative to wild-type Smad3” value came to 7%.

On to B7, for which the “percent binding relative to wild-type Smad3” value was 339%.

In the case of B8, the “percent binding relative to wild-type Smad3” value is 88%.

In the case of B9, the “percent binding relative to wild-type Smad3” value worked out at 15%.

With B10, the “percent binding relative to wild-type Smad3” value was determined as 162%.

For the molecule B11, the “percent binding relative to wild-type Smad3” value came to 128%.

As to B12, the “percent binding relative to wild-type Smad3” value turned out to be 33%.

With B13, the “percent binding relative to wild-type Smad3” value was determined as 66%.

In the case of B14, the “percent binding relative to wild-type Smad3” value was determined as 159%.

For another experiment, the target named is T2, SARA Smad-binding domain (amino acids 665–721) on the 3xFlag-thioredoxin scaffold (UniProt O95405 767-823).
T2 construct: SARA, amino acids 665–721; cloned into the unique RsrII site of pCI-3xFLAG-Trx; also called SARA aa665–721; TrxSARA; source: HEK-293, transfected, in lysate
T2 sequence (looked up): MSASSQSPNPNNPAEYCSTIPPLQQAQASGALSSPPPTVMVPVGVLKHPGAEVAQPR
The experiment is described as above. Particulars: partners not purified.
Turning to B1, the “percent binding relative to wild-type Smad3” value worked out at 94%.

On to B2, for which the “percent binding relative to wild-type Smad3” value came out at 4%.

On to B3, for which the “percent binding relative to wild-type Smad3” value turned out to be 2%.

For B5, the “percent binding relative to wild-type Smad3” value turned out to be 3%.

For B6, the “percent binding relative to wild-type Smad3” value was 1%.

On to B7, for which the “percent binding relative to wild-type Smad3” value amounted to 21%.

As to B8, the “percent binding relative to wild-type Smad3” value was determined as 81%.

Take B9: the “percent binding relative to wild-type Smad3” value was 1%.

As for B10, the “percent binding relative to wild-type Smad3” value was 3%.

With B11, the “percent binding relative to wild-type Smad3” value was found to be 103%.

Consider B12, for which the “percent binding relative to wild-type Smad3” value is 73%.

In the case of B13, the “percent binding relative to wild-type Smad3” value is 4%.

As to B14, the “percent binding relative to wild-type Smad3” value worked out at 12%.

In a further experiment the target is T3, Flag-SARA, full length (UniProt O95405 1-1425).
T3 construct: SARA; plasmid pCMV5b-Flag-SARA; also called SARA FL; source: HEK-293, transfected, in lysate
T3 sequence (looked up): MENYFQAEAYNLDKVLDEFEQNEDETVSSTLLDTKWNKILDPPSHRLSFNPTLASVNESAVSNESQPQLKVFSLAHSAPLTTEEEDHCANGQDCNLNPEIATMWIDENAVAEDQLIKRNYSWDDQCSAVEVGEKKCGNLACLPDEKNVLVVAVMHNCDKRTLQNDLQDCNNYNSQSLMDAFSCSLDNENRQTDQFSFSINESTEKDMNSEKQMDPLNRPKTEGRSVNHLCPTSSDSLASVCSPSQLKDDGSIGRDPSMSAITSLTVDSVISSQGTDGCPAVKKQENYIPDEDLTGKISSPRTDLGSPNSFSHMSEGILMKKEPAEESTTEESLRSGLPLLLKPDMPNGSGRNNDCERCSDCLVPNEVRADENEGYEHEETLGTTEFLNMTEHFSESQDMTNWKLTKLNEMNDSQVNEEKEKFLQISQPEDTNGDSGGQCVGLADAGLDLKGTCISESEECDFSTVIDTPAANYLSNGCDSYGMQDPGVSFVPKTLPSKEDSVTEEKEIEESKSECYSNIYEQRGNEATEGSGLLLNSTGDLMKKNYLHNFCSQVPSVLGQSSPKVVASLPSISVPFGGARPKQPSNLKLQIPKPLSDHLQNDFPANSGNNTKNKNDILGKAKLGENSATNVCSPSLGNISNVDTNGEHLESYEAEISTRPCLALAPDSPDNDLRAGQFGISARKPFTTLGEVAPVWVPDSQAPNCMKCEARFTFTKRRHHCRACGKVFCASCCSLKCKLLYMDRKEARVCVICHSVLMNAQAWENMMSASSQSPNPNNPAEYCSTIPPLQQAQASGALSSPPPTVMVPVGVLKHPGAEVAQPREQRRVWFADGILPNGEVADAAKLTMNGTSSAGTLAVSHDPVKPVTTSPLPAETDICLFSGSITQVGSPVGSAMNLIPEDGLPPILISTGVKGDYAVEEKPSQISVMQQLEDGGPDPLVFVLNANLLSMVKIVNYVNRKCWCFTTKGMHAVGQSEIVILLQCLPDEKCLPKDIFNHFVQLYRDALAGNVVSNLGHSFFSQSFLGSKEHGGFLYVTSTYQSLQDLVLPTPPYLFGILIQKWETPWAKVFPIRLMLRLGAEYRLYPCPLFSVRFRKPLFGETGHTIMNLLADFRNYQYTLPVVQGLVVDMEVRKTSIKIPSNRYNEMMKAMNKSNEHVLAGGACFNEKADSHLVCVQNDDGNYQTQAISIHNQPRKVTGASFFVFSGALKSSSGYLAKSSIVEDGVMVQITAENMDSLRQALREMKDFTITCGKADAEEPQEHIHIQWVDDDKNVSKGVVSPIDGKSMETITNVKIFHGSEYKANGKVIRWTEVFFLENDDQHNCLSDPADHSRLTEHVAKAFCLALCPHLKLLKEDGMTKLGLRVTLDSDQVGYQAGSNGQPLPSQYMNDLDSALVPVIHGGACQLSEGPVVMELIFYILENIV
The description is as above. Particulars: partners not purified.
Take B1: the “percent binding relative to wild-type Smad3” value was 136%.

For B2, the “percent binding relative to wild-type Smad3” value came to 13%.

As to B3, the “percent binding relative to wild-type Smad3” value came out at 16%.

With B4, the “percent binding relative to wild-type Smad3” value was 38%.

In the case of B5, the “percent binding relative to wild-type Smad3” value came out at 32%.

Take B6: the “percent binding relative to wild-type Smad3” value stood at 16%.

B7: the “percent binding relative to wild-type Smad3” value came to 42%.

In the case of B8, the “percent binding relative to wild-type Smad3” value was 82%.

In the case of B9, the “percent binding relative to wild-type Smad3” value is 12%.

As for B10, the “percent binding relative to wild-type Smad3” value amounted to 12%.

For the molecule B11, the “percent binding relative to wild-type Smad3” value came to 154%.

In the case of B12, the “percent binding relative to wild-type Smad3” value was 150%.

Regarding B13, the “percent binding relative to wild-type Smad3” value came out at 29%.

With B14, the “percent binding relative to wild-type Smad3” value came out at 58%.
